Test results from publication PMC8467012.
Blank lines part the entries; values can stand above or below the binder they belong to.

Target: ErbB3 receptor on cancer cells (human (endogenous in MCF-7, SK-BR-3, BT-474, Hep G2)) (UniProt P21860)
Sequence (P21860 20-1342): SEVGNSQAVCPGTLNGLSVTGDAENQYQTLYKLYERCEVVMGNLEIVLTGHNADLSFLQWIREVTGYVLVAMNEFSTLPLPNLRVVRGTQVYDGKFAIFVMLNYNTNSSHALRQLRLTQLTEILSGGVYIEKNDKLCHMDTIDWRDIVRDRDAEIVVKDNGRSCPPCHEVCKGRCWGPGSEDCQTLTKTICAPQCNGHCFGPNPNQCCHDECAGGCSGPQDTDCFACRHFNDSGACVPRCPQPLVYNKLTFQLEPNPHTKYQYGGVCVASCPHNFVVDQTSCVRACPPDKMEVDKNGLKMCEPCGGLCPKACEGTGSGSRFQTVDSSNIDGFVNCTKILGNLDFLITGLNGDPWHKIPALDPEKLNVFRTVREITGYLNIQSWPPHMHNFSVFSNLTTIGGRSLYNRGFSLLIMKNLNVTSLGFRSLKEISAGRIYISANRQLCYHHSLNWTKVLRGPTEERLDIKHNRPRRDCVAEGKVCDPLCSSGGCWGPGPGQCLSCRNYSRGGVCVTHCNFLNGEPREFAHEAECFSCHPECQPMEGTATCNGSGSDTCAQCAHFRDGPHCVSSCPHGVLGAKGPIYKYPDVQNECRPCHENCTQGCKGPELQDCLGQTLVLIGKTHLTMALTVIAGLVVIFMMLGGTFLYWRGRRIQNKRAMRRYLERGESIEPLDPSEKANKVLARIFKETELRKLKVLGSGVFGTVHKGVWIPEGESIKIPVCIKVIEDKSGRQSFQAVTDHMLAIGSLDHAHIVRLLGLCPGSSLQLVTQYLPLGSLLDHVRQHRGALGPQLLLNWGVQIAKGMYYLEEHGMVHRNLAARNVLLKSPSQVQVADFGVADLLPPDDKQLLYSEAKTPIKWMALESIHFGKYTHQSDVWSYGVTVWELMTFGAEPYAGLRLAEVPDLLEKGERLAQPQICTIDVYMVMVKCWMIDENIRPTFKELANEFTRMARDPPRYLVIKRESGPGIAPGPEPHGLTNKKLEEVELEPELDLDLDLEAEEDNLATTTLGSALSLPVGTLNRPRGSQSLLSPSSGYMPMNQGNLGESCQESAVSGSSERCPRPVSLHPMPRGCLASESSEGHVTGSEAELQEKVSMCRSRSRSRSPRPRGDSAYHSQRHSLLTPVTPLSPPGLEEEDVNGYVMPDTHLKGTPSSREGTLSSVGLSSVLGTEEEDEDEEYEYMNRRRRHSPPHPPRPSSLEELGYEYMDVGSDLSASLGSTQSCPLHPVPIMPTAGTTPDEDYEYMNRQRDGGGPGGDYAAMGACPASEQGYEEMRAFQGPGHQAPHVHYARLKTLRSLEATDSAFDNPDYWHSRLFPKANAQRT

- EC50 of inhibition of heregulin-driven proliferation of MCF-7 cells (MTS, 5 days, 50 ng/mL heregulin-1β): 0.1 µg/mL
- EC50 of inhibition of proliferation of SK-BR-3 cells (MTS, 5 days, 50 ng/mL heregulin-1β): 15 µg/mL
B1: BCD090-P1 (VHH)
VHH: EVQLVQSGGGLVQPGGSLRLSCAASGRTSSKYAMGWFRQAPGKGTEFVATISWSDGSTYYADSVEGRFTISRDNAKNTVYLQMNSLKPEDTAVYYCAAAVDVLAGTFEYEYDYWGQGTLVTVSS

- EC50 of inhibition of heregulin-driven proliferation of MCF-7 cells (MTS, 5 days, 50 ng/mL heregulin-1β); blocks heregulin binding to ErbB3: 25 µg/mL
- EC50 of inhibition of proliferation of SK-BR-3 cells (MTS, 5 days, 50 ng/mL heregulin-1β); blocks heregulin binding to ErbB3: 3 µg/mL
B2: BCD090-M2 (VHH)
VHH: QVQLVQSGGGLVQAGGSLRLSCAFSGRTFSMYTMGWFRQAPGKEREFVAANRGRGLSPDIADSVNGRFTISRDNAKNTLYLQMDSLKPEDTAVYYCAADLQYGSSWPQRSSAEYDYWGQGTTVTVSS
